The assay addresses T1, A/Serbia/NS-601/2014 H1N1 NA, soluble tetramer with His tag attached (Influenza A virus A/Serbia/NS-601/2014 …, strain).
T1 chain: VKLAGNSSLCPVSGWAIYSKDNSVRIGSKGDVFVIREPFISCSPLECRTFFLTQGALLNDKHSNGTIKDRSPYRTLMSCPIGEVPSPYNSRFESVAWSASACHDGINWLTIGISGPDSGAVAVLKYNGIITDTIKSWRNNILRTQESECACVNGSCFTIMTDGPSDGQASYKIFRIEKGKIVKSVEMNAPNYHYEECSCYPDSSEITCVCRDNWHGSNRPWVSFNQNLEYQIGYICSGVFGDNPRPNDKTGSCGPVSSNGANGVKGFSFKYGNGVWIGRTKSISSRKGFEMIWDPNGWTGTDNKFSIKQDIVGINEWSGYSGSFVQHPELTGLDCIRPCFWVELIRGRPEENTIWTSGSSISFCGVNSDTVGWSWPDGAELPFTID
Kind of assay: SPR. Conditions: both partners purified.

As usually defined, the Kd is the concentration at which binding is half-saturated. A low value points to higher affinity.

B1: Z2B3-D102R Fab (Fab, V domains shown)
VH: EVQLVQSGAEVKKPGSSVKVSCKASGGPFSSYGFSWVRQAPGQGLEWMGGIIPVYGTTNYAQKFQGRVTITADESTSTAYMELSSLKSEDTAVYYCARDLQRTPMVDRIIGSYYYYNGLDVWGQGTTVTVSS
VL: QSVLTQPASVSGSPGQSITISCTGASSDVGDYNYVSWYQQHPGKAPKLMIYDVSNRPSGVSNRFSGSKSGDTASLTISGLQAEDEADYYCSSYTRSSSVVFGGGTKLTVL
B1 returned a Kd of 401 nM.

(Values after article PMC7542365 (mBio, 2020).)
